# Test results from US12618845B2, “Methods and compositions for protein sequencing” (Quantum-Si Incorporated, priority 2018, dated 2026).
# Read-outs that look alike come from different tables or passages of the source.
# B1: VPr: Vibrio proteolyticus aminopeptidase (protein)
# chain: MPPITQQATVTAWLPQVDASQITGTISSLESFTNRFYTTTSGAQASDWIASEWQALSASLPNASVKQVSHSGYNQKSVVMTITGSEAPDEWIVIGGHLDSTIGSHTNEQSVAPGADDDASGIAAVTEVIRVLSENNFQPKRSIAFMAYAAEEVGLRGSQDLANQYKSEGKNVVSALQLDMTNYKGSAQDVVFITDYTDSNFTQYLTQLMDEYLPSLTYGFDTCGYACSDHASWHNAGYPAAMPFESKFNDYNPRIHTTQDTLANSDPTGSHAKKFTQLGLAYAIEMGSATGDTPTPGNQ
# System: peptide substrates
# Assay type: biochemical
molecule,measurement,setting,value
B1,HPLC Assay Conv,"substrate […]1 (SEQ ID NO: 11), 600 μM Peptide, 0.08 μM enzyme, 10 mM 5Mg(OAc)2, 0 mM MOPS pH 8, 60 mM KOAc, RT/0.5 hr",5%
same,HPLC Assay Conv,"substrate […]1 (SEQ ID NO: 11), 600 μM Peptide, 0.8 μM enzyme, 10 mM Mg(OAc)2, 50 mM MOPS pH 8, 60 mM KOAc, RT/0.5 hr",50%
same,HPLC Assay Conv,"substrate […]1 (SEQ ID NO: 11), 600 μM Peptide, 8 μM enzyme, 10 mM Mg(OAc)2, 50 mM MOPS pH 8, 60 mM KOAc, RT/0.5 hr",100%
same,HPLC Assay Conv,"substrate […]1 (SEQ ID NO: 11), 600 μM Peptide, 8 μM enzyme, 10 mM Mg(OAc)2, 50 mM MOPS pH 8, RT/0.5 hr",100%
same,HPLC Assay Conv,"substrate […]1 (SEQ ID NO: 13), 300 μM Peptide, 8 μM enzyme, 10 mM Mg(OAc)2, 50 mM MOPS pH 8, 60 mM KOAc, 37° C./2 hr",100%
same,HPLC Assay Conv,"substrate […]1 (SEQ ID NO: 13), 300 μM Peptide, 8 μM enzyme, 10 mM Mg(OAc)2, 50 mM MOPS pH 8, 60 mM KOAc, RT/0.5 hr",70%
same,HPLC Assay Conv,"substrate […]1 (SEQ ID NO: 13), 300 μM Peptide, 8 μM enzyme, 10 mM Mg(OAc)2, 50 mM MOPS pH 8, 60 mM KOAc, RT/2 hr",100%
same,HPLC Assay Conv,"substrate […]1 (SEQ ID NO: 13), 300 μM Peptide, 8 μM enzyme, 10 mM Mg(OAc)2, 50 mM MOPS pH 8, 0.2% Tween20, RT/0.5 hr",100%
same,HPLC Assay Conv,"substrate […]1 (SEQ ID NO: 13), 300 μM Peptide, 8 μM enzyme, 10 mM Mg(OAc)2, 50 mM MOPS pH 8, RT/0.5 hr",100%
same,HPLC Assay Conv,"substrate […]1 (SEQ ID NO: 13), 300 μM Peptide, 8 μM enzyme, 50/50 MOPS Mg buffer/RB1, RT/0.5 hr",30%
same,HPLC Assay Conv,"substrate […]1 (SEQ ID NO: 13), 300 μM Peptide, 8 μM enzyme, RB2 + Mg, RT/0.5 hr",5%
same,HPLC Assay Conv,"substrate […]1 (SEQ ID NO: 13), 300 μM Peptide, 8 μM enzyme, RB4, RT/0.5 hr",100%
same,HPLC Assay Conv,"substrate […]1 (SEQ ID NO: 13), 600 μM Peptide, 8 μM enzyme, 10 mM Mg(OAc)2, 50 mM MOPS pH 8, RT/0.5 hr",100%
same,HPLC Assay Conv,"substrate […]{LYSN3}NH2 (SEQ ID NO: 107), 200 μM Peptide, 4 μM enzyme, 10 mM MgCl2, 50 mM MOPS pH 8.0, 37° C./0.5 hr",100%
same,HPLC Assay Conv,"substrate […]{LYSN3}NH2 (SEQ ID NO: 107), 200 μM Peptide, 4 μM enzyme, 10 mM MgCl2, 50 mM MOPS pH 8.0, 37° C./1 hr",100%
same,HPLC Assay Conv,"substrate […]{LYSN3}NH2 (SEQ ID NO: 107), 200 μM Peptide, 8 μM enzyme, 10 mM MgCl2, 50 mM MOPS pH 5.0, RT/0.5 hr",100%
same,HPLC Assay Conv,"substrate […]{LYSN3}NH2 (SEQ ID NO: 107), 200 μM Peptide, 8 μM enzyme, 10 mM MgCl2, 50 mM MOPS pH 5.0, RT/1 hr",100%
same,HPLC Assay Conv,"substrate […]{LYSN3}NH2 (SEQ ID NO: 107), 300 μM Peptide, 4 μM enzyme, 10 mM MgCl2, 50 mM MOPS pH 8.0, 37° C./0.5 hr",100%
same,HPLC Assay Conv,"substrate […]{LYSN3}NH2 (SEQ ID NO: 107), 400 μM Peptide, 8 μM enzyme, 50 mM HEPES pH 8.0, 300 mM NaCl, 1 mM DTT, 5% Glycerol, 32 mM PCA, 37° C./1 hr",100%
same,HPLC Assay Conv,"substrate […]{LYSN3}NH2 (SEQ ID NO: 107), 600 μM Peptide, 0.8 μM enzyme, 10 mM Mg(OAc)2, 50 mM MOPS pH 5.5, RT/0.5 hr",100%
same,HPLC Assay Conv,"substrate […]{LYSN3}NH2 (SEQ ID NO: 107), 600 μM Peptide, 0.8 μM enzyme, 10 mM Mg(OAc)2, 50 mM MOPS pH 6.5, RT/0.5 hr",100%
same,HPLC Assay Conv,"substrate […]{LYSN3}NH2 (SEQ ID NO: 107), 600 μM Peptide, 0.8 μM enzyme, 10 mM Mg(OAc)2, 50 mM MOPS pH 7.5, RT/0.5 hr",100%
same,HPLC Assay Conv,"substrate […]{LYSN3}NH2 (SEQ ID NO: 107), 600 μM Peptide, 0.8 μM enzyme, 10 mM Mg(OAc)2, 50 mM MOPS pH 8.5, RT/0.5 hr",100%
same,HPLC Assay Conv,"substrate […]{LYSN3}NH2 (SEQ ID NO: 107), 1200 μM Peptide, 800 pM enzyme, 10 mM Mg(OAc)2, 50 mM MOPS pH 7.5, RT/0.5 hr",2.70%
same,HPLC Assay Conv,"substrate […]{LYSN3}NH2 (SEQ ID NO: 107), 1200 μM Peptide, 800 pM enzyme, 10 mM Mg(OAc)2, 50 mM MOPS pH 8.5, RT/0.5 hr",6.80%
same,HPLC Assay Conv,"substrate […]{LYSN3}NH2 (SEQ ID NO: 107), 1200 μM Peptide, 0.008 μM enzyme, 10 mM Mg(OAc)2, 50 mM MOPS pH 7.5, RT/0.5 hr",100%
same,HPLC Assay Conv,"substrate […]{LYSN3}NH2 (SEQ ID NO: 107), 1200 μM Peptide, 0.008 μM enzyme, 10 mM Mg(OAc)2, 50 mM MOPS pH 8.5, RT/0.5 hr",100%
same,HPLC Assay Conv,"substrate […]{LYSN3}NH2 (SEQ ID NO: 107), 1200 μM Peptide, 0.08 μM enzyme, 10 mM Mg(OAc)2, 50 mM MOPS pH 5.5, RT/0.5 hr",50%
same,HPLC Assay Conv,"substrate […]{LYSN3}NH2 (SEQ ID NO: 107), 1200 μM Peptide, 0.08 μM enzyme, 10 mM Mg(OAc)2, 50 mM MOPS pH 6.5, RT/0.5 hr",100%
same,HPLC Assay Conv,"substrate […]{LYSN3}NH2 (SEQ ID NO: 107), 1200 μM Peptide, 0.08 μM enzyme, 10 mM Mg(OAc)2, 50 mM MOPS pH 7.5, RT/0.5 hr",100%
same,HPLC Assay Conv,"substrate […]{LYSN3}NH2 (SEQ ID NO: 109), 300 μM Peptide, 4 μM enzyme, 10 mM MgCl2, 50 mM MOPS pH 8.0, 37° C./0.5 hr",100%
same,HPLC Assay Conv,"substrate […]{LYSN3}NH2 (SEQ ID NO: X), 1200 μM Peptide, 0.08 μM enzyme, 10 mM Mg(OAc)2, 50 mM MOPS pH 8.5, RT/0.5 hr",100%
